Results: patent publication US9481899B2, “Methods and compositions for producing hydrocarbons” (priority 2008, dated 2016)

Tested on: E. coli MG1655
Experiment: Coexpression of decarbonylase and aldehyde-generating enzyme in E. coli, GC-MS of hydrocarbons
Format: cell-based
Conditions: for Production of Alkanes and Alkenes: alkane/alkene biosynthetic polypeptide coexpressed in E. coli with the aldehyde biosynthetic polypeptide of the same table row; for fatty aldehyde decarbonylase activity in E. coli: cotransformed with S. elongatus PCC7942_1594 into E. coli MG1655, M9 minimal media, 37° C.
From the text: Seven cyanobacteria, whose complete genome sequences are publicly available, were selected for verification and/or detection of alkane biosynthesis: Synechococcus elongatus PCC7942, Synechococcus elongatus PCC6301, Anabaena variabilis ATCC29413, Synechocystis sp. PCC6803, Nostoc punctiforme PCC73102, Gloeobacter violaceus ATCC 29082, and Prochlorococcus marinus CCMP1986. Only the first three cyanobacterial strains from this list had previously been reported to contain alkanes (Han et al., J. Am. Chem. Soc. 91:5156-5159 (1969); Fehler et al., Biochem. 9:418-422 (1970)). The strains were grown photoautotrophically in shake flasks in 100 mL of the appropriate media (listed in Table 8) for 3-7 days at 30° C. at a light intensity of approximately 3,500 lux. Cells were extracted for alkane detection as follows: cells from 1 mL culture volume were centrifuged for 1 min at 13,000 rpm, the cell pellets were resuspended in methanol, vortexed for 1 min and then sonicated for 30 min. After centrifugation for 3 min at 13,000 rpm, the supernatants were transferred to fresh vials and analyzed by GC-MS. The samples were analyzed on either 30 m DP-5 capillary column (0.25 mm internal diameter) or a 30 m high temperature DP-5 capillary column (0.25 mm internal diameter) using the following method.
After a 1 μL splitless injection (inlet temperature held at 300° C.) onto the GC/MS column, the oven was held at 100° C. for 3 mins. The temperature was ramped up to 320° C. at a rate of 20° C./min. The oven was held at 320° C. for an additional 5 min. The flow rate of the carrier gas helium was 1.3 mL/min. The MS quadrapole scanned from 50 to 550 m/z. Retention times and fragmentation patterns of product peaks were compared with authentic references to confirm peak identity.
The genomic DNA encoding Synechococcus elongatus PCC7942 orf1594 (YP_400611; putative aldehyde-generating enzyme) (SEQ ID NO:65) was amplified and cloned into the NcoI and EcoRI sites of vector OP-80 (pCL1920 derivative) under the control of the Ptrc promoter. The resulting construct (“OP80-PCC7942_1594”) was transformed into E. coli MG1655 and the cells were grown at 37° C. in M9 minimal media with 1% (w/v) glucose as carbon source and supplemented with 100 μg/mL spectinomycin. When the culture reached OD600 of 0.8-1.0, it was induced with 1 mM IPTG and cells were grown for an additional 18-20 h at 37° C. Cells from 0.5 mL of culture were extracted with 0.5 mL of ethyl acetate. After sonication for 60 min, the sample was centrifuged at 15,000 rpm for 5 min. The solvent layer was analyzed by GC-MS as described in Example 1.
The genomic DNA encoding Synechococcus elongatus PCC7942 orf1593 (YP_400610; putative decarbonylase) (SEQ ID NO:1) was amplified and cloned into the NdeI and XhoI sites of vector OP-183 (pACYC derivative) under the control of the Ptrc promoter. The resulting construct was cotransformed with OP80-PCC7942_1594 into E. coli MG1655 and the cells were grown at 37° C. in M9 minimal media supplemented with 100 μg/mL spectinomycin and 100 μg/mL carbenicillin. The cells were cultured and extracted as in Example 3 and analyzed by GC-MS as described in Example 1. […]

Row | Molecule | Production of Alkanes and Alkenes | fatty aldehyde decarbonylase activity in E. coli
1 | SEQ ID NO: 1: Synechococcus elongatus PCC7942 orf1593, putative decarbonylase | yes | active fatty aldehyde decarbonylase
2 | SEQ ID NO: 11: Thermosynechococcus elongatus BP-1 tll1313, putative decarbonylase (protein, listed as Thermosynechococcus elongatus) MTTATATPVLDYHSDRYKDAYSRINAIVIEGEQEAHDNYIDLAKLLPQHQEELTRLAKMEARHKKGFEACGRNLSVTPDMEFAKAFFEKLRANFQRALAEGKTATCLLIQALIIESFAIAAYNIYIPMADPFARKITESVVKDEYSHLNFGEIWLKEHFESVKGELEEANRANLPLVWKMLNQVEADAKVLGMEKDALVEDFMIQYSGALENIGFTTREIMKMSVYGLTGA | yes | active fatty aldehyde decarbonylase
3 | SEQ ID NO: 49: Prochlorococcus marinus MIT9313 PMT1231, putative decarbonylase, codon optimized for E. coli (protein, listed as Prochlorococcus marinus) MPTLEMPVAAVLDSTVGSSEALPDFTSDRYKDAYSRINAIVIEGEQEAHDNYIAIGTLLPDHVEELKRLAKMEMRHKKGFTACGKNLGVEADMDFAREFFAPLRDNFQTALGQGKTPTCLLIQALLIEAFAISAYHTYIPVSDPFARKITEGVVKDEYTHLNYGEAWLKANLESCREELLEANRENLPLIRRMLDQVAGDAAVLQMDKEDLIEDFLIAYQESLTEIGFNTREITRMAAAALVS | yes | active fatty aldehyde decarbonylase
4 | SEQ ID NO: 51: Prochlorococcus mariunus NATL2A PMN2A_1863, putative decarbonylase, codon optimized for E. coli (protein, listed as Prochlorococcus marinus) MQAFASNNLTVEKEELSSNSLPDFTSESYKDAYSRINAVVIEGEQEAYSNFLDLAKLIPEHADELVRLGKMEKKHMNGFCACGRNLAVKPDMPFAKTFFSKLHNNFLEAFKVGDTTTCLLIQCILIESFAISAYHVYIRVADPFAKRITEGVVQDEYLHLNYGQEWLKANLETVKKDLMRANKENLPLIKSMLDEVSNDAEVLHMDKEELMEEFMIAYQDSLLEIGLDNREIARMALAAVI | yes | active fatty aldehyde decarbonylase
5 | SEQ ID NO: 27: Cyanothece sp. ATCC51142 cce_0778, putative decarbonylase (protein, listed as Cyanothece sp.) MQELALRSELDFNSETYKDAYSRINAIVIEGEQEAYQNYLDMAQLLPEDEAELIRLSKMENRHKKGFQACGKNLNVTPDMDYAQQFFAELHGNFQKAKAEGKIVTCLLIQSLIIEAFAIAAYNIYIPVADPFARKITEGVVKDEYTHLNFGEVWLKEHFEASKAELEDANKENLPLVWQMLNQVEKDAEVLGMEKEALVEDFMISYGEALSNIGFSTREIMKMSAYGLRAA | yes | active fatty aldehyde decarbonylase
6 | SEQ ID NO: 29: Cyanothece sp. PCC7425 Cyan7425_0398, putative decarbonylase (protein, listed as Cyanothece sp.) MPQVQSPSAIDFYSETYQDAYSRIDAIVIEGEQEAHDNYLKLTELLPDCQEDLVRLAKMEARHKKGFEACGRNLKVTPDMEFAQQFFADLHNNFQKAAAANKIATCLVIQALIIECFAIAAYNIYIPVADDFARKITENVVKDEYTHLNFGEEWLKANFDSQREEVEAANRENLPIVWRMLNQVETDAHVLGMEKEALVESFMIQYGEALENIGFSTREIMRMSVYGLSAA | yes | active fatty aldehyde decarbonylase
7 | SEQ ID NO: 31: Cyanothece sp. PCC7425 Cyan7425_2986, putative decarbonylase (protein, listed as Cyanothece sp.) MSDCATNPALDYYSETYRNAYRRVNGIVIEGEKQAYDNFIRLAELLPEYQAELTRLAKMEARHQKSFVACGQNLKVSPDLDFAAQFFAELHQIFASAANAGQVATCLVVQALIIECFAIAAYNTYLPVADEFARKVTASVVQDEYSHLNFGEVWLQNAFEQCKDEIITANRLALPLIWKMLNQVTGELRILGMDKASLVEDFSTRYGEALGQIGFKLSEILSLSVQGLQAVTP | yes | active fatty aldehyde decarbonylase
8 | SEQ ID NO: 3: Synechocystis sp. PCC6803 sll0208, putative decarbonylase (protein, listed as Synechocystis sp.) MPELAVRTEFDYSSEIYKDAYSRINAIVIEGEQEAYSNYLQMAELLPEDKEELTRLAKMENRHKKGFQACGNNLQVNPDMPYAQEFFAGLHGNFQHAFSEGKVVTCLLIQALIIEAFAIAAYNIYIPVADDFARKITEGVVKDEYTHLNYGEEWLKANFATAKEELEQANKENLPLVWKMLNQVQGDAKVLGMEKEALVEDFMISYGEALSNIGFSTREIMRMSSYGLAGV | yes | 
9 | SEQ ID NO: 13: Synechococcus sp. JA-3-3Ab CYA_0415, putative decarbonylase (protein, listed as Synechococcus sp.) MAPANVLPNTPPSPTDGGGTALDYSSPRYRQAYSRINGIVIEGEQEAHDNYLKLAEMLPEAAEELRKLAKMELRHMKGFQACGKNLQVEPDVEFARAFFAPLRDNFQSAAAAGDLVSCFVIQSLIIECFAIAAYNIYIPVADDFARKITEGVVKDEYLHLNFGERWLGEHFAEVKAQIEAANAQNLPLVRQMLQQVEADVEAIYMDREAIVEDFMIAYGEALASIGFNTREVMRLSAQGLRAA | yes | 
